Source: patent US12077763B2, “RNA-based control of powdery mildew” (Greenlight Biosciences, Inc., priority 2021, dated 2024)

System: E. necator
Experiment: Leaf disc assay, dry inoculum (settling tower), decrease in disease severity / hyphal growth (Example 2)
Settings: decrease in disease severity (hyphal growth) relative to untreated control, value ± SE; for % decrease =/− SE TP1: time point 1 (untreated control hyphal growth ≥50%)

Molecule | % decrease =/− SE TP1 | % decrease =/− SE TP2 (time point 2)
GS3939 (nucleic acid) sense: AAGAUUGAAAAUGGAACGCCUAGAACAGCACCUUUAAUUACAACACGAAGGACUCCGAAAAUGCUACGAUCUACUGUGUCAAAUUCCUCGCUUUCCUCACAACCAUCAAUGUCACCGCAUCAAUUUAUUGCUCUUGCCCGGGAAGCAAUGAAAAAUGCUUUGGAAGAGAACAAAUCAAAGGCAGCUGAGGCCAAAAGUGUUAGUAAUGAACUUAAGCCAGGGGUUACGAUCGAUUUUAGCAACAAACAAAUCCAACGAUUUCCUGAUGAAGUAAUUGAUAUAAUAAAGAAUGAGCUUGAAAGACUUGCGCUGUCACAUAAUCAAAUAUCUGUGUUUCCCUCAAGGUUUUCCGAAUGCAAAUCACUCCGAUACCUCAAUGUUAGAGAUAAUGUUAU antisense: AUAACAUUAUCUCUAACAUUGAGGUAUCGGAGUGAUUUGCAUUCGGAAAACCUUGAGGGAAACACAGAUAUUUGAUUAUGUGACAGCGCAAGUCUUUCAAGCUCAUUCUUUAUUAUAUCAAUUACUUCAUCAGGAAAUCGUUGGAUUUGUUUGUUGCUAAAAUCGAUCGUAACCCCUGGCUUAAGUUCAUUACUAACACUUUUGGCCUCAGCUGCCUUUGAUUUGUUCUCUUCCAAAGCAUUUUUCAUUGCUUCCCGGGCAAGAGCAAUAAAUUGAUGCGGUGACAUUGAUGGUUGUGAGGAAAGCGAGGAAUUUGACACAGUAGAUCGUAGCAUUUUCGGAGUCCUUCGUGUUGUAAUUAAAGGUGCUGUUCUAGGCGUUCCAUUUUCAAUCUU | 4 ± 5% | 
GS3938 (nucleic acid) sense: AUCGGCAAAAGUAAUGCUUCAAAAGCUGAUACAAAGACUAUAUGGAGAGGAGCUUUAAAUAUAUUGGAAGACUUAAAAAACGCAGAAAAGGAUUGGAGAUUUGGGAAAACUGAAAUUGUAGGGUUUGACAUUGAGAGAGAGAACCAAAUAGAUUGCCCUCAAAGUGAUAUGGAAAUCUUGCAGCAACAGUCAAGCAACACUGCAAGCUAUGCCAAUAAUUUCACCUCCGACCUUACACCUGAAGGCCGCCCAACAGGAAAAGUUACGAAAGCUCGAUUUCAGUCUGCAGAAAUAGGAAAAUGUACUCAAGUUGGAUGGGGAGUCGUACACCUAUACCGUGAUGAUAACGAUGCUGUUAAUUUUGAUACCCGAACUACUACAUACGAUGGAAA antisense: UUUCCAUCGUAUGUAGUAGUUCGGGUAUCAAAAUUAACAGCAUCGUUAUCAUCACGGUAUAGGUGUACGACUCCCCAUCCAACUUGAGUACAUUUUCCUAUUUCUGCAGACUGAAAUCGAGCUUUCGUAACUUUUCCUGUUGGGCGGCCUUCAGGUGUAAGGUCGGAGGUGAAAUUAUUGGCAUAGCUUGCAGUGUUGCUUGACUGUUGCUGCAAGAUUUCCAUAUCACUUUGAGGGCAAUCUAUUUGGUUCUCUCUCUCAAUGUCAAACCCUACAAUUUCAGUUUUCCCAAAUCUCCAAUCCUUUUCUGCGUUUUUUAAGUCUUCCAAUAUAUUUAAAGCUCCUCUCCAUAUAGUCUUUGUAUCAGCUUUUGAAGCAUUACUUUUGCCGAU | 3 ± 5% | 
GS1817: dsRNA trigger SEQ ID NO 139; gene target Cell division control protein 48 (nucleic acid) DNA: GCTTCGCGAAAGTAAGGTGCAAGGAAAACATCAAAGAGGGAACCAGTAAGGCCTTCAACAGTATCTGCGATAGGAAGAACTGCGATACGTTTGGCGTATTTTATATCAGGACATGGATGTACTGTAACAATATCACCATGTTTAACCCTAAGGTTGTGTCGGACAACACGATTCATACGAGCACTCCCGTCATCTAAATCATCATCTGCGAGTACAATTAAAACAGTATCCTTTCGCTTCTTCCCCTTAACTAGGACAGTATCTCCACGAAAAAGCTGCAAAGTTTCCATGGTATTATTTGACAGTGCAATAACAGAGTTATCATCGTTGATGGCATCTGTTACAATTAAGGAATTTGGCTTTTTCTTCTTTTTTAAAATAGCAGTCGCAGTAGCATCAATCGTCTTTTGTTCAGCGCCAGAGGCATCCTCAAGTTTAACTGTTTTTTTACGAGTAGCATTGTCTTCAGACATAGTTGTGTAATAAAAGTTAAGAGGGCGTAATTTCCTAGAAAGAATATATCTACTATTAATTTATTGAGATCTTGGAATGAAGGTTTATCCGATAAAATCTGTAAATGATGGAGCTAATCTGAAG | 52 ± 2% | 49 ± 6%
